Results on one molecule are retold here after US7396905B1, “Calcipressins: endogenous inhibitors of calcineurin, uses and reagents related thereto” (priority 1999, dated 2008).

In experiment [1] the test system is calcineurin-dependent nuclear import of NF-AT4. As to the kind of experiment: Calcineurin-dependent NF-AT4 nuclear import assay in BHK cells. The settings on record: co-expressed with GFP-NF-AT4 in BHK cells; calcium ionophore. The format is cell-based, baby hamster. Here is the method: This assay monitors the subcellular location of GFP-tagged NF-AT4, a transcription factor that resides in the cytoplasm of unstimulated BHK cells. Following stimulation of BHK cells with ionomycin, a calcium ionophore, GFP-NF-AT4 translocates to the nucleus with a t1/2 of five minutes. This translocation event is accompanied by a dephosphorylation of NF-AT4 in a process dependent on calcineurin.
Baby hamster kidney cells were grown on sterile glass coverslips in DMEM media with 10% fetal calf serum and transfected using calcium phosphate methods (Heald et al., 1993). […] NF-AT4 expression was based on the vector pcDNA3-GFP-NF-AT4 (Shibasaki et al., 1996). Transfected cells were grown for 18 hours prior to drug treatments. Cells were fixed 30 minutes after ionomycin (0.5 uM) treatment or washout using 3% formaldehyde in PBS for 10 minutes at room temperature.

Experiment [2] concerns calcineurin A and B subunits produced by in vitro translation. As to the kind of experiment: In vitro binding of GST fusion proteins to 35S-labelled calcineurin subunits. To be noted: GST fusion proteins purified from E. coli. Here is the method:
5A. […] Associated calcineurin subunits were detected and quantified by SDS-polyacrylamide gel electrophoresis and autoradiography. The same deletion mutants were co-expressed with GFP-NF-AT4 in BHK cells and assayed for their ability to block calcium ionophore-stimulated NF-AT4 nuclear import.
Purified GsT-Csp1 and -Csp2 fusion proteins were mixed with calcineurin in vitro translation lysates in buffer A (50 mM Tris-HCl, pH7.5, 140 mM NaCl, 1 mM CaCl2, and 0.4% Triton X-100), incubated for 60 minutes at 4 degrees, and absorbed with glutathione-agarose beads. The agarose beads were washed three times with buffer A, resuspended in 2×SDS sample buffer, and fractionated on SDS-polyacrylamide gels. Dried gels were analyzed by the phosphoImager to detect and quantify GsT-Csp1 or -Csp2-associated calcineurin subunits.

B1: Csp1 1-100: Csp1 lacking the C-terminal half (protein)
chain: MEEVDLQDLPSATIACHLDPRVFVDGLCRAKFESLFRTYDKDTTFQYFKSFKRVRINFSNPLSAADARLRLHKTEFLGKEMKLYFAQTLHIGSSHLAPPN
modifications: left off: a dimerising Fc or GST
notes: Csp1 lacking the C-terminal half
As for B1, the “inhibition of NF-AT4 nuclear import stimulated by calcium ionophore” value in experiment [1] is on record as “fails to block calcium-activation NF-AT4 nuclear import”. In experiment [2], the “interaction with calcineurin in vitro” value is listed as “no obvious interaction with calcineurin in vitro”.
